For six molecules, interaction score results are on record in PMC10397247.

Experiment [1] concerns the target T1, P11A-bH.
T1 chain: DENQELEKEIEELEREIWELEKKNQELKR
Put plainly: two-hybrid library CCNG1.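 Further: natural log of median RNA to DNA barcode read ratio; higher means stronger binding.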

Experiment [2] addresses T2, P12A-bH.
T2 chain: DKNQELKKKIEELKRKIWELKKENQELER
Put plainly: two-hybrid library CCNG1.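 Further: natural log of median RNA to DNA barcode read ratio; higher means stronger binding.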

Experiment [3] deals with T3, P1A-bH.
T3 chain: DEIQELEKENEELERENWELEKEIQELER
As to the kind of experiment: two-hybrid library CCNG1.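 Further: natural log of median RNA to DNA barcode read ratio; higher means stronger binding.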

Experiment [4] concerns the target T4, P2A-bH.
T4 chain: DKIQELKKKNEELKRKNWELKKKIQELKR
As to the kind of experiment: two-hybrid library CCNG1.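 Further: natural log of median RNA to DNA barcode read ratio; higher means stronger binding.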

Experiment [5] concerns the target T5, P3A-bH.
T5 chain: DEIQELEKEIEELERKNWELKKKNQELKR
As to the kind of experiment: two-hybrid library CCNG1.

For experiment [6], the target named is T6, P4A-bH.
T6 chain: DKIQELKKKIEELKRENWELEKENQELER
Put plainly: two-hybrid library CCNG1.

Experiment [7] has as its target T7, P5A-bH.
T7 chain: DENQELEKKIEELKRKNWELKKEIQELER
Put plainly: two-hybrid library CCNG1.

In experiment [8] the target is T8, P6A-bH.
T8 chain: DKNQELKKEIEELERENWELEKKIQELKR
Put plainly: two-hybrid library CCNG1.

The target of experiment [9] is T9, P7A-bH.
T9 chain: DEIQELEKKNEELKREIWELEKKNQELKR
As to the kind of experiment: two-hybrid library CCNG1.

The target in experiment [10] is T10, P8A-bH.
T10 chain: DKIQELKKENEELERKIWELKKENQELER
Put plainly: two-hybrid library CCNG1.

Experiment [11] concerns the target T11, P6SC1.
T11 chain: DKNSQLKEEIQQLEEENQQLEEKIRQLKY
As to the kind of experiment: two-hybrid library CCNG1.

In experiment [12] the target is T12, P6SC2.
T12 chain: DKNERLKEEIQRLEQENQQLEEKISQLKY
Put plainly: two-hybrid library CCNG1.

Experiment [13] concerns the target T11, P6SC1. Put plainly: two-hybrid library CCmax. Conditions: mean of both orientations.
Experiment [14] deals with T12, P6SC2. As to the kind of experiment: two-hybrid library CCmax. As to conditions: mean of both orientations.
Experiment [15] addresses T13, 4H112-bH.
T13 chain: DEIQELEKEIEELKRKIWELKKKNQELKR
Put plainly: two-hybrid library CCNG1.

Experiment [16] has as its target T14, 4H1158-bH.
T14 chain: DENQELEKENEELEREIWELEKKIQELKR
Put plainly: two-hybrid library CCNG1.

Experiment [17] addresses T15, 4H118-bH.
T15 chain: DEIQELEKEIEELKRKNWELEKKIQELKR
Put plainly: two-hybrid library CCNG1.

Experiment [18] concerns the target T16, 4H170-bH.
T16 chain: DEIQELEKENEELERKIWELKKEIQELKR
Put plainly: two-hybrid library CCNG1.

Experiment [19] addresses T17, 4H1831-bH.
T17 chain: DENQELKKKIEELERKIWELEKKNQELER
Put plainly: two-hybrid library CCNG1.

Experiment [20] has as its target T18, 4H2233-bH.
T18 chain: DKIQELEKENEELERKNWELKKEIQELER
Put plainly: two-hybrid library CCNG1.

Experiment [21] has as its target T19, 4H2586-bH.
T19 chain: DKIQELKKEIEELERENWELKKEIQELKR
As to the kind of experiment: two-hybrid library CCNG1.

The target of experiment [22] is T20, 4H2627-bH.
T20 chain: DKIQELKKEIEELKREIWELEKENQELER
As to the kind of experiment: two-hybrid library CCNG1.

The target of experiment [23] is T21, 4H2673-bH.
T21 chain: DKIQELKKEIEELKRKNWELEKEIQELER
Put plainly: two-hybrid library CCNG1.

Experiment [24] has as its target T22, 4H2702-bH.
T22 chain: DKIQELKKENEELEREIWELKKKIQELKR
Put plainly: two-hybrid library CCNG1.

The target of experiment [25] is T23, 4H3010-bH.
T23 chain: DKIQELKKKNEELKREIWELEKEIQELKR
As to the kind of experiment: two-hybrid library CCNG1.

Experiment [26] concerns the target T24, 4H3112-bH.
T24 chain: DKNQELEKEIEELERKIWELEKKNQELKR
As to the kind of experiment: two-hybrid library CCNG1.

Experiment [27] has as its target T25, 4H3427-bH.
T25 chain: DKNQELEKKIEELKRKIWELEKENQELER
As to the kind of experiment: two-hybrid library CCNG1.

Experiment [28] addresses T26, 4H346-bH.
T26 chain: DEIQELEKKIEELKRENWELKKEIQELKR
Put plainly: two-hybrid library CCNG1.

Experiment [29] has as its target T27, 4H3926-bH.
T27 chain: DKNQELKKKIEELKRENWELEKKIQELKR
Put plainly: two-hybrid library CCNG1.

Experiment [30] addresses T28, 4H4073-bH.
T28 chain: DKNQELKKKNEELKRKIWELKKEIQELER
Put plainly: two-hybrid library CCNG1.

The target in experiment [31] is T29, 4H457-bH.
T29 chain: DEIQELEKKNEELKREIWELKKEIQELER
Put plainly: two-hybrid library CCNG1.

Experiment [32] concerns the target T30, 4H575-bH.
T30 chain: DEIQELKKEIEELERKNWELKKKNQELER
Put plainly: two-hybrid library CCNG1.

Experiment [33] has as its target T31, 4H683-bH.
T31 chain: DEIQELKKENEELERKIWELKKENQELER
As to the kind of experiment: two-hybrid library CCNG1.

The target in experiment [34] is T32, 4H754-bH.
T32 chain: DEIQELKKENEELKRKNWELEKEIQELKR
As to the kind of experiment: two-hybrid library CCNG1.

Experiment [35] addresses T33, 4H780-bH.
T33 chain: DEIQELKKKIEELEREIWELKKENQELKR
Put plainly: two-hybrid library CCNG1.

The target in experiment [36] is T34, 4H797-bH.
T34 chain: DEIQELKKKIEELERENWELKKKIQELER
Put plainly: two-hybrid library CCNG1.

Experiment [37] deals with T35, 4H855-bH.
T35 chain: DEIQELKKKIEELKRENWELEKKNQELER
As to the kind of experiment: two-hybrid library CCNG1.

Experiment [38] addresses T36, 4H918-bH.
T36 chain: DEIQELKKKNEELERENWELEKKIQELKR
Put plainly: two-hybrid library CCNG1.

Experiment [39] addresses T37, 4H953-bH.
T37 chain: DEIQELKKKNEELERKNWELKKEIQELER
Put plainly: two-hybrid library CCNG1.

Experiment [40] addresses T38, 4H968-bH.
T38 chain: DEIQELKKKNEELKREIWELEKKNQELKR
Put plainly: two-hybrid library CCNG1.

Experiment [41] deals with T39, P9A-bH.
T39 chain: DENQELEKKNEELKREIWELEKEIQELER
Put plainly: two-hybrid library CCNG1.

Experiment [42] has as its target T40, 4H145-bH.
T40 chain: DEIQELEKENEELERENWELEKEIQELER
As to the kind of experiment: two-hybrid library CCNG1. As to conditions: mean of both orientations.

Experiment [43] concerns the target T41, 4H2619-bH.
T41 chain: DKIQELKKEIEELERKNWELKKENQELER
As to the kind of experiment: two-hybrid library CCNG1.

The target in experiment [44] is T42, 4H2691-bH.
T42 chain: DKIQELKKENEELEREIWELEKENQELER
Put plainly: two-hybrid library CCNG1.

Experiment [45] deals with T43, 4H3070-bH.
T43 chain: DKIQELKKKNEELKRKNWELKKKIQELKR
As to the kind of experiment: two-hybrid library CCNG1. Conditions: mean of both orientations.

The target in experiment [46] is T44, 4H342-bH.
T44 chain: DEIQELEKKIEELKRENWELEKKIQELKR
As to the kind of experiment: two-hybrid library CCNG1.

Experiment [47] deals with T45, 4H3632-bH.
T45 chain: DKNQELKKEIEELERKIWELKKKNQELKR
Put plainly: two-hybrid library CCNG1.

Experiment [48] deals with T46, 4H496-bH.
T46 chain: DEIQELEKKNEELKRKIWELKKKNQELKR
As to the kind of experiment: two-hybrid library CCNG1.

Regarding DKNQELKKENEELERKIWELKKKIQELKR [P10A-bH], the interaction score in [1] is -0.118; in [2], 1.15; in experiment [3] it was 1.06; in experiment [4] it was -0.586; in [5], 0.247; in [6] it was 0.192. Further, the interaction score is -0.49 in experiment [7], 0.998 in experiment [8], 0.686 in [9] and -0.68 in experiment [10].

DENSQLEEKISQLKQKNSRLKEEIARLEY [P5SC1]: the interaction score in [11] is 0.785; in experiment [12], -0.371; in experiment [13], 1.63; in [14], 0.454.

With DEIQELEKEIEELKRKIWELKKKNQELKR [4H112-bH], the interaction score is 1.65 in experiment [15]; 1.45 in [16]; 0.444 in experiment [17]; -0.736 in experiment [18]; 0.143 in [19]; -0.606 in [20]. The interaction score in [21] came out at 0.807; in experiment [22] it was 1.4; in experiment [23], 0.53; in experiment [24] it was 0.179; in [25], 1.49; in [26] it was 1.27. For the same molecule, the interaction score in experiment [27] was 1.48; in experiment [28], 0.154; in [29], 0.23; in experiment [30], 1.39; in experiment [31], 1.45; in [32], -0.63. For the same molecule, the interaction score in [33] was 0.914; in experiment [34], -0.515; in [35], 0.211; in experiment [36] it was -0.295; in experiment [37], -0.0783; in [38] it was -0.152. Further, the results for the interaction score in [39] and in experiment [40] were -0.228 and 0.0767, respectively.

For DENARLEEKIRQLKQKNSQLKEEIQQLEY [P5SC2], the interaction score was 0.383 in experiment [11], 0.391 in [12], 0.953 in experiment [13] and 0.811 in experiment [14].

Consider DENQELEKEIEELEREIWELEKKNQELKR [P11A-bH], for which the interaction score is -2.55 in experiment [1]; 1.5 in experiment [2]; 1.5 in experiment [3]; 0.45 in experiment [4]; 0.615 in experiment [5]; 1.83 in experiment [6]. Further, the interaction score in experiment [7] came out at 0.555; in [8] it was 0.692; in experiment [9], 0.921; in [10] it was 0.165; in experiment [41], 1.09.

As for DEIQELEKENEELERENWELEKEIQELER [4H145-bH], the interaction score in experiment [42] was -0.793; in experiment [43] it was -0.128; in experiment [44], -0.291; in experiment [45], 1.19; in experiment [46] it was -0.409; in experiment [47], -1.44. In [48], the interaction score was -0.316.
